Results taken from patent US20070298448A1 (PROTEOSYS, published 2007).
Primed or numbered codes have the meaning given here. Ends that are not written are not given here. Bz′ = not defined here; OBz = not defined here

Key:
[1] = target: T1, [Cys(Bz)^84, Glu(OBz)^85]-CD4(81-92) (UniProt P01730 106-117, reading uncertain); test: mutant immobilized on Ni-NTA-agarose beads, peptide incubated, washed, eluted with 200 mM acetic acid, MALDI-TOF
T1 construct: range 81-92; Synthetic derivatized peptide
T1 peptide: TYIC(Bz′)E(OBz)VEDQKEE

[2] = target: T2, human angiotensin II (human, UniProt P01019 25-32); test: peptide incubated with mutant on Ni-NTA-agarose beads, washed, acid eluate read by MALDI-TOF
T2 construct: also called calibration peptide; control peptide

[3] = target: T3, human angiotensin I (human, UniProt P01019 25-34); test: as above
T3 construct: also called calibration peptide; control peptide

B1: 6xHis-Ser237Ala-V8Δ48 mutant (enzyme)
chain: MRGSHHHHHHGSVILPNNDRHQITDTTNGHYAPVTYIQVEAPTGTFIASGVVVGKDTLLTNKHVVDATHGDPHALKAFPSAINQDNYPNGGFTAEQITKYSGEGDLAIVKFSPNEQNKHIGEVVKPATMSNNAETQVNQNITVTGYPGDKPVATMWESKGKITYLKGEAMQYDLSTTGGNAGSPVFNEKNEVIGIHWGGVPNEFNGAVFINENVRNFLKQNIEDIHFANDDQKLN
notes: also called Ser237Ala-V8Δ48 protease; anhydro mutant of the V8 proteinase
binding result [1]: binds | binding result [2]: no binding | binding result [3]: no binding
